“Also recorded” adds a separate entry of the source.
Molecular target: T1, PAR4 (Homo sapiens, UniProt Q96RI0)
T1 construct: host or cells: HEK293 cells transfected with FLAG-PAR4 and/or isolated human platelets
T1 sequence (Q96RI0 18-385): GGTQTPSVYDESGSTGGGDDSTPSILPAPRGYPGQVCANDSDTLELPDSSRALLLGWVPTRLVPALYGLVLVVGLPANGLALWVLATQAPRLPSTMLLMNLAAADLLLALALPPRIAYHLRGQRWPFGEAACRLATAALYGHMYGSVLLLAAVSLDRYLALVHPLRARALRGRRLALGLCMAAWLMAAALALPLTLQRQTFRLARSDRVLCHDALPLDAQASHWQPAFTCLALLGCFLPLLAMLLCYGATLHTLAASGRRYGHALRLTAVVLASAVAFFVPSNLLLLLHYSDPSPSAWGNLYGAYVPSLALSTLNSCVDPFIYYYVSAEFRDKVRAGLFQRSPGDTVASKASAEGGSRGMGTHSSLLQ
Test: Functional bioassays for PAR4 inhibitory function
Assay type: cell-based

B1: 5A.RC3: anti-PAR4 monoclonal antibody, IgG2a/K, VH SEQ ID NO:11 and VL SEQ ID NO:12 (antibody, V domains shown)
VH: QVQLVESGGGVVQPGRSLRLSCAASGFTLSNYGMHWVRQAPGKGLEWVSVIWYDGSNKHYADSVKGRFTISRDNSKNTLYLQMNSLRAEDTAVYYCARESIVEVLPPFDYWGQGTLVTVSS
VL: KIVLTQSPGTLSLSPGERVTLSCRASQRVRNNYLAWFQQKPGQAPRLFIYGASSRATGIPDRFSGSGSGTDFIFTISRLEPEDFAVYYCQQYGNSYTFGQGTKLEIK
modifications: VH of 5A.RC3; VL of 5A.RC3
PAR4 inhibitory (antagonist) function: demonstrated PAR4 inhibitory function; also recorded: antagonist

Reference: US12441790B2, “Binding proteins to the human thrombin receptor, PAR4” (MONASH UNIVERSITY, priority 2017, dated 2025)
